Data as given in the supplement of paper PMC10065799, “High-throughput profiling of sequence recognition by tyrosine kinases and SH2 domains using bacterial peptide display” (eLife, 2023).

Test system: Fer (mouse)
Experiment: phosphorylation enrichment, bacterial display (enrichment ratio); higher = better substrate or ligand; peptides without Tyr show the background
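Throughout, for SH2 binding enrichment of the phosphorylated peptide, bacterial display: peptide library displayed on the E. coli surface as eCPX fusions, selected cells deep-sequenced, score is each peptide's frequency after selection divided by its frequency in the input.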
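Throughout, for phosphorylation enrichment, bacterial display: 11-residue human phosphosite peptides and single-mutation variants displayed on the E. coli surface, counted by deep sequencing, each peptide's frequency after selection divided by its frequency in the unselected input library; frequency after pTyr selection over input frequency; kinase dosed for 20-30% of maximal phosphorylation in three min.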

Sequence	phosphorylation enrichment
VSLEAYCKHKY [RXRA_Y403_A398V]	0.541
ITLPIYTKESE [ANK2_Y1455]	0.485
ATGLIYIGSHD [AASDH_Y870_T865A]	0.52
GGMTEYNLVVV [KRAS_Y4_K5N]	1.17
LRFDSYSSFCN [SLC20A2_Y433_YF]	0.617
PSRKDYETFQP [CTNND2_Y1154_YF]	0.473
DLLNSYTENEG [HSPA4L_Y600_I601T]	0.446
AAQNCYKVTNA [TPI1_Y105_G110A]	0.354
KKHIPHREHKS [CSNK1G2_Y206_Y206H]	2.81
SVTCTYTPALN [TP53_Y126_S127T]	0.478
SILTVYSKDNF [PANK2_Y400_A398T_YF]	0.481
CDSSGYWTPEE [PAPPA2_Y908]	0.556
NTYEKYLEEEY [TF_Y669_G671E]	0.563
EEHIPYTHMNG [INSR_Y1361]	0.452
ENGPFYTSFPP [GDAP2_Y488_YF]	4.74
PEYVVYKPQME [CCRL2_Y170_F167Y]	1.09

Biological target: Hck (UniProt P08631)
Experiment: as above

Sequence of Hck (P08631 whole entry, looked up): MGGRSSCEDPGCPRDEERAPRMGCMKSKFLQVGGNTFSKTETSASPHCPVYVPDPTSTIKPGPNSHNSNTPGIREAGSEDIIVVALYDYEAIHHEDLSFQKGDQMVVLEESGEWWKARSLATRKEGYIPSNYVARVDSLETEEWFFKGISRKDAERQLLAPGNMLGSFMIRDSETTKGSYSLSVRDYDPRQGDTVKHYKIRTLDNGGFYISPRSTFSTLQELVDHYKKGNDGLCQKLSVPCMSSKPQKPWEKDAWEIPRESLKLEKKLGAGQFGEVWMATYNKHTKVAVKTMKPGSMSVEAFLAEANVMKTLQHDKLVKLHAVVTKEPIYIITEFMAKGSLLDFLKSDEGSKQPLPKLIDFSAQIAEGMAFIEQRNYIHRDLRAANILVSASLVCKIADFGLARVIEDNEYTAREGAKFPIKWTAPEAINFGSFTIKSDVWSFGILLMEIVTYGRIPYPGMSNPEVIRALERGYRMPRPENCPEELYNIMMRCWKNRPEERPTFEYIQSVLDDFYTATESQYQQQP

Sequence	phosphorylation enrichment
VSLEAYCKHKY [RXRA_Y403_A398V]	0.579
ITLPIYTKESE [ANK2_Y1455]	0.907
ATGLIYIGSHD [AASDH_Y870_T865A]	0.469
GGMTEYNLVVV [KRAS_Y4_K5N]	0.609
LRFDSYSSFCN [SLC20A2_Y433_YF]	0.687
PSRKDYETFQP [CTNND2_Y1154_YF]	0.73
DLLNSYTENEG [HSPA4L_Y600_I601T]	0.603
AAQNCYKVTNA [TPI1_Y105_G110A]	0.36
KKHIPHREHKS [CSNK1G2_Y206_Y206H]	1.72
SVTCTYTPALN [TP53_Y126_S127T]	0.511
SILTVYSKDNF [PANK2_Y400_A398T_YF]	0.548
CDSSGYWTPEE [PAPPA2_Y908]	0.555
NTYEKYLEEEY [TF_Y669_G671E]	0.608
EEHIPYTHMNG [INSR_Y1361]	0.51
ENGPFYTSFPP [GDAP2_Y488_YF]	7.05
PEYVVYKPQME [CCRL2_Y170_F167Y]	6.69

Biological target: FGFR1 (UniProt P11362)
Experiment: as above

Sequence of FGFR1 (P11362 whole entry, looked up): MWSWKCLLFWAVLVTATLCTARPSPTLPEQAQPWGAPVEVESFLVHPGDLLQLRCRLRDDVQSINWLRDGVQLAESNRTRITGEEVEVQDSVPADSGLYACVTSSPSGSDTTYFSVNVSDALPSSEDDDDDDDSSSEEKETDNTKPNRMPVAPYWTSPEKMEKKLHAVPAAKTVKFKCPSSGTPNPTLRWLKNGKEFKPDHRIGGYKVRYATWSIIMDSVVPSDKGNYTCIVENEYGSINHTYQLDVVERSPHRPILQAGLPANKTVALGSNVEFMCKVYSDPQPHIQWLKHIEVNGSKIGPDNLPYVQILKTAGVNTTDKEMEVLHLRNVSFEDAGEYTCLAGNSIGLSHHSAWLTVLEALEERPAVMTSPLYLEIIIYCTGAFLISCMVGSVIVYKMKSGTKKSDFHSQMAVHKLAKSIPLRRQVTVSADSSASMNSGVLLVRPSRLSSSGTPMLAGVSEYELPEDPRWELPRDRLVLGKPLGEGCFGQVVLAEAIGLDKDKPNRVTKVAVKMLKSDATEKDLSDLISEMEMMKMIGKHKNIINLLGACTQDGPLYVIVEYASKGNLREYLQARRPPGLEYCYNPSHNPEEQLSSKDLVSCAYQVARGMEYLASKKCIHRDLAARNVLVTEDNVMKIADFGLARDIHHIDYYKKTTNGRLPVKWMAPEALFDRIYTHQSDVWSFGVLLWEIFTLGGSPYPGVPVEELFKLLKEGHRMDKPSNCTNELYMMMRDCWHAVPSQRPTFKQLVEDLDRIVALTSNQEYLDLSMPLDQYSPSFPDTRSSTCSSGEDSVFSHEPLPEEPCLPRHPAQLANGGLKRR

Sequence	phosphorylation enrichment
VSLEAYCKHKY [RXRA_Y403_A398V]	0.611
ITLPIYTKESE [ANK2_Y1455]	0.722
ATGLIYIGSHD [AASDH_Y870_T865A]	0.427
GGMTEYNLVVV [KRAS_Y4_K5N]	1.08
LRFDSYSSFCN [SLC20A2_Y433_YF]	0.703
PSRKDYETFQP [CTNND2_Y1154_YF]	0.558
DLLNSYTENEG [HSPA4L_Y600_I601T]	0.578
AAQNCYKVTNA [TPI1_Y105_G110A]	0.367
KKHIPHREHKS [CSNK1G2_Y206_Y206H]	1.97
SVTCTYTPALN [TP53_Y126_S127T]	0.5
SILTVYSKDNF [PANK2_Y400_A398T_YF]	0.572
CDSSGYWTPEE [PAPPA2_Y908]	0.579
NTYEKYLEEEY [TF_Y669_G671E]	0.553
EEHIPYTHMNG [INSR_Y1361]	0.497
ENGPFYTSFPP [GDAP2_Y488_YF]	3.86
PEYVVYKPQME [CCRL2_Y170_F167Y]	8.3

Biological target: Fes (UniProt P07332)
Experiment: as above

Sequence of Fes (P07332 whole entry, looked up): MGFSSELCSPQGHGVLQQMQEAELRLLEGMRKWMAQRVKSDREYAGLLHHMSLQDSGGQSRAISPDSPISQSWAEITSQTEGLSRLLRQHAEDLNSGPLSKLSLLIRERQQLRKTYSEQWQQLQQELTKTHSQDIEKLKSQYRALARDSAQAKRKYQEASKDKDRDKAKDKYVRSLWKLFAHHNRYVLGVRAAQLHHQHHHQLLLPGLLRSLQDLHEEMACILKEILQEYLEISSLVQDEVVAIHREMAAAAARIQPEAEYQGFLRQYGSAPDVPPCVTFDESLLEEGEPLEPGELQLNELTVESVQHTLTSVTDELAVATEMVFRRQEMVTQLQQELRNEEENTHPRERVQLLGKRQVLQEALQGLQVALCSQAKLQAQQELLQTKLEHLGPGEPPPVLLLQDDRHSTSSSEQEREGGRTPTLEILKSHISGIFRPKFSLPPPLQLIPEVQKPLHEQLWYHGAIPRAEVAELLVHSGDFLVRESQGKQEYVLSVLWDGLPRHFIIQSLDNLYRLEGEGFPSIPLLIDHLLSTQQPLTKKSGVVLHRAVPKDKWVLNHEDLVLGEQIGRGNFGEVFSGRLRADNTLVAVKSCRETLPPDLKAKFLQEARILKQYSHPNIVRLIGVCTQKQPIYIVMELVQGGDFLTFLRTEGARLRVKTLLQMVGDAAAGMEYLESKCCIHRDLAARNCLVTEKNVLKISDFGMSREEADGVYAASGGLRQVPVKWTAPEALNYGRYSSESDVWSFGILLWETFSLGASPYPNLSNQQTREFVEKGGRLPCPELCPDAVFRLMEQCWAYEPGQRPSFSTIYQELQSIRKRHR

Sequence	phosphorylation enrichment
VSLEAYCKHKY [RXRA_Y403_A398V]	1.24
ITLPIYTKESE [ANK2_Y1455]	1.19
ATGLIYIGSHD [AASDH_Y870_T865A]	1.15
GGMTEYNLVVV [KRAS_Y4_K5N]	1.1
LRFDSYSSFCN [SLC20A2_Y433_YF]	1.52
PSRKDYETFQP [CTNND2_Y1154_YF]	1.21
DLLNSYTENEG [HSPA4L_Y600_I601T]	1.24
AAQNCYKVTNA [TPI1_Y105_G110A]	0.639
KKHIPHREHKS [CSNK1G2_Y206_Y206H]	4.05
SVTCTYTPALN [TP53_Y126_S127T]	1.29
SILTVYSKDNF [PANK2_Y400_A398T_YF]	0.894
CDSSGYWTPEE [PAPPA2_Y908]	1.47
NTYEKYLEEEY [TF_Y669_G671E]	1.93
EEHIPYTHMNG [INSR_Y1361]	0.85
ENGPFYTSFPP [GDAP2_Y488_YF]	1.04
PEYVVYKPQME [CCRL2_Y170_F167Y]	1.29

Biological target: FGFR3 (UniProt P22607)
Experiment: as above

Sequence of FGFR3 (P22607 whole entry, looked up): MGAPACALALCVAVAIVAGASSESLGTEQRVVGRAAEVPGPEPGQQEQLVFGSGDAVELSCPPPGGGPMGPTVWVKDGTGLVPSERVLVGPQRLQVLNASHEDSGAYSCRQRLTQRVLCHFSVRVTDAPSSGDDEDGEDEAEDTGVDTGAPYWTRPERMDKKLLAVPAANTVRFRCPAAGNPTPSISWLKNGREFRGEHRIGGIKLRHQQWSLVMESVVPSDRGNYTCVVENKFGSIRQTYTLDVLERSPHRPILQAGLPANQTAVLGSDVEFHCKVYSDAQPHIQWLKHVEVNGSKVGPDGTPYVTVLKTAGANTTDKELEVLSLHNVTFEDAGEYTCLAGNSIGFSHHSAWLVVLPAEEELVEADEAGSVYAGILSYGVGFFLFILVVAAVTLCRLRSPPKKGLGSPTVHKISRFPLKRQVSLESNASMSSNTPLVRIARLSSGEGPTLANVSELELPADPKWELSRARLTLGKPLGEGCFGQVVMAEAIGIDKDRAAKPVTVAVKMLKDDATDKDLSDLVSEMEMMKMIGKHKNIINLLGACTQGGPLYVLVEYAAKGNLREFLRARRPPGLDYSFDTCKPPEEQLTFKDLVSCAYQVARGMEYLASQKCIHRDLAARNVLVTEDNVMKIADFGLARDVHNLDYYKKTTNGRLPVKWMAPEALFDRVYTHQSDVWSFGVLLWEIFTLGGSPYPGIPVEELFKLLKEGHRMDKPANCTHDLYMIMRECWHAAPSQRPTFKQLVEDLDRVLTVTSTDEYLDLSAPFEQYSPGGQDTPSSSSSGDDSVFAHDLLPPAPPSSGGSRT

Sequence	phosphorylation enrichment
VSLEAYCKHKY [RXRA_Y403_A398V]	0.662
ITLPIYTKESE [ANK2_Y1455]	0.76
ATGLIYIGSHD [AASDH_Y870_T865A]	0.684
GGMTEYNLVVV [KRAS_Y4_K5N]	1.05
LRFDSYSSFCN [SLC20A2_Y433_YF]	1.1
PSRKDYETFQP [CTNND2_Y1154_YF]	0.667
DLLNSYTENEG [HSPA4L_Y600_I601T]	0.759
AAQNCYKVTNA [TPI1_Y105_G110A]	0.46
KKHIPHREHKS [CSNK1G2_Y206_Y206H]	4.9
SVTCTYTPALN [TP53_Y126_S127T]	0.811
SILTVYSKDNF [PANK2_Y400_A398T_YF]	0.627
CDSSGYWTPEE [PAPPA2_Y908]	0.783
NTYEKYLEEEY [TF_Y669_G671E]	0.86
EEHIPYTHMNG [INSR_Y1361]	0.598
ENGPFYTSFPP [GDAP2_Y488_YF]	2.62
PEYVVYKPQME [CCRL2_Y170_F167Y]	6.08

Biological target: c-Src SH2
Experiment: SH2 binding enrichment of the phosphorylated peptide, bacterial display (enrichment ratio); higher = better substrate or ligand; peptides without Tyr show the background

Sequence	SH2 binding enrichment
VSLEAYCKHKY [RXRA_Y403_A398V]	0.421
ITLPIYTKESE [ANK2_Y1455]	0.515
ATGLIYIGSHD [AASDH_Y870_T865A]	0.598
GGMTEYNLVVV [KRAS_Y4_K5N]	0.352
LRFDSYSSFCN [SLC20A2_Y433_YF]	0.519
PSRKDYETFQP [CTNND2_Y1154_YF]	0.645
DLLNSYTENEG [HSPA4L_Y600_I601T]	0.457
AAQNCYKVTNA [TPI1_Y105_G110A]	0.608
KKHIPHREHKS [CSNK1G2_Y206_Y206H]	1.8
SVTCTYTPALN [TP53_Y126_S127T]	0.422
SILTVYSKDNF [PANK2_Y400_A398T_YF]	0.466
CDSSGYWTPEE [PAPPA2_Y908]	14.9
NTYEKYLEEEY [TF_Y669_G671E]	2.16
EEHIPYTHMNG [INSR_Y1361]	0.722
ENGPFYTSFPP [GDAP2_Y488_YF]	0.83
PEYVVYKPQME [CCRL2_Y170_F167Y]	0.439

Biological target: Grb2 SH2 (UniProt P62993)
Experiment: as above

Sequence of Grb2 SH2 (P62993 whole entry, looked up): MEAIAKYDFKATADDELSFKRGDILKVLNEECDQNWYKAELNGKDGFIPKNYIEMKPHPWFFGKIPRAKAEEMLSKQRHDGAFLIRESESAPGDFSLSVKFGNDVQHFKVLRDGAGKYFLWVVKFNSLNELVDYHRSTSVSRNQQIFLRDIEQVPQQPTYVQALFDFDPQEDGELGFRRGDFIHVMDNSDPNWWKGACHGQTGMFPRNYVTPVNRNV

Sequence	SH2 binding enrichment
VSLEAYCKHKY [RXRA_Y403_A398V]	0.62
ITLPIYTKESE [ANK2_Y1455]	0.845
ATGLIYIGSHD [AASDH_Y870_T865A]	0.759
GGMTEYNLVVV [KRAS_Y4_K5N]	0.669
LRFDSYSSFCN [SLC20A2_Y433_YF]	0.805
PSRKDYETFQP [CTNND2_Y1154_YF]	0.884
DLLNSYTENEG [HSPA4L_Y600_I601T]	0.7
AAQNCYKVTNA [TPI1_Y105_G110A]	1.15
KKHIPHREHKS [CSNK1G2_Y206_Y206H]	2.15
SVTCTYTPALN [TP53_Y126_S127T]	0.698
SILTVYSKDNF [PANK2_Y400_A398T_YF]	0.838
CDSSGYWTPEE [PAPPA2_Y908]	0.967
NTYEKYLEEEY [TF_Y669_G671E]	0.743
EEHIPYTHMNG [INSR_Y1361]	0.754
ENGPFYTSFPP [GDAP2_Y488_YF]	0.813
PEYVVYKPQME [CCRL2_Y170_F167Y]	0.913

Biological target: SHP2-C SH2
Experiment: as above

Sequence	SH2 binding enrichment
VSLEAYCKHKY [RXRA_Y403_A398V]	0.627
ITLPIYTKESE [ANK2_Y1455]	0.72
ATGLIYIGSHD [AASDH_Y870_T865A]	0.526
GGMTEYNLVVV [KRAS_Y4_K5N]	0.488
LRFDSYSSFCN [SLC20A2_Y433_YF]	0.612
PSRKDYETFQP [CTNND2_Y1154_YF]	0.372
DLLNSYTENEG [HSPA4L_Y600_I601T]	0.882
AAQNCYKVTNA [TPI1_Y105_G110A]	0.639
KKHIPHREHKS [CSNK1G2_Y206_Y206H]	1.87
SVTCTYTPALN [TP53_Y126_S127T]	0.574
SILTVYSKDNF [PANK2_Y400_A398T_YF]	0.73
CDSSGYWTPEE [PAPPA2_Y908]	1.08
NTYEKYLEEEY [TF_Y669_G671E]	0.607
EEHIPYTHMNG [INSR_Y1361]	0.807
ENGPFYTSFPP [GDAP2_Y488_YF]	0.711
PEYVVYKPQME [CCRL2_Y170_F167Y]	1.05
